# Data: patent US20230357348A1 (AstraZeneca / MedImmune, published 2023)
# Starred links: 1 amine or outer side, 2 acyl side, 3 side chain; linkers in the order of their positions; H or OH if unused. Non-standard residues stand in square brackets, D forms with d. Groups on a side chain read outwards from the residue. No end group written: not given here. *: point of attachment. C20 diacid = O=C(O)CCCCCCCCCCCCCCCCCCC(=O)*; C18 diacid = O=C(O)CCCCCCCCCCCCCCCCC(=O)*; γGlu = O=C(O)[C@H](CCC(=O)[*:2])N[*:1]; αMeF = C[C@](N)(Cc1ccccc1)C(=O)O; AEEA = NCCOCCOCC(=O)O; Aib = CC(C)(N)C(=O)O
# B1: Peptide 490 (peptide)
# peptide: H[Aib]QGTFTSDVSK[αMeF]LDTK([AEEA-AEEA-γGlu-C20 diacid])RARDFVQWLL[Aib]TE-NH2
# modifications: N-terminus assumed
# SMILES: CC(C)C[C@H](NC(=O)[C@H](Cc1c[nH]c2ccccc12)NC(=O)[C@H](CCC(N)=O)NC(=O)[C@@H](NC(=O)[C@H](Cc1ccccc1)NC(=O)[C@H](CC(=O)O)NC(=O)[C@H](CCCNC(=N)N)NC(=O)[C@H](C)NC(=O)[C@H](CCCNC(=N)N)NC(=O)[C@H](CCCCNC(=O)COCCOCCNC(=O)COCCOCCNC(=O)CC[C@H](NC(=O)CCCCCCCCCCCCCCCCCCC(=O)O)C(=O)O)NC(=O)[C@@H](NC(=O)[C@H](CC(=O)O)NC(=O)[C@H](CC(C)C)NC(=O)[C@](C)(Cc1ccccc1)NC(=O)[C@H](CCCCN)NC(=O)[C@H](CO)NC(=O)[C@@H](NC(=O)[C@H](CC(=O)O)NC(=O)[C@H](CO)NC(=O)[C@@H](NC(=O)[C@H](Cc1ccccc1)NC(=O)[C@@H](NC(=O)CNC(=O)[C@H](CCC(N)=O)NC(=O)C(C)(C)NC(=O)[C@@H](N)Cc1c[nH]cn1)[C@@H](C)O)[C@@H](C)O)C(C)C)[C@@H](C)O)C(C)C)C(=O)N[C@@H](CC(C)C)C(=O)NC(C)(C)C(=O)N[C@H](C(=O)N[C@@H](CCC(=O)O)C(N)=O)[C@@H](C)O
# B2: Peptide 491 (peptide)
# peptide: H[Aib]QGTFTSDVSK[αMeF]LDTK([AEEA-AEEA-γGlu-C18 diacid])RARDFVRWLL[Aib]TE-OH
# modifications: N-terminus assumed
# SMILES: CC(C)C[C@H](NC(=O)[C@H](Cc1c[nH]c2ccccc12)NC(=O)[C@H](CCCNC(=N)N)NC(=O)[C@@H](NC(=O)[C@H](Cc1ccccc1)NC(=O)[C@H](CC(=O)O)NC(=O)[C@H](CCCNC(=N)N)NC(=O)[C@H](C)NC(=O)[C@H](CCCNC(=N)N)NC(=O)[C@H](CCCCNC(=O)COCCOCCNC(=O)COCCOCCNC(=O)CC[C@H](NC(=O)CCCCCCCCCCCCCCCCC(=O)O)C(=O)O)NC(=O)[C@@H](NC(=O)[C@H](CC(=O)O)NC(=O)[C@H](CC(C)C)NC(=O)[C@](C)(Cc1ccccc1)NC(=O)[C@H](CCCCN)NC(=O)[C@H](CO)NC(=O)[C@@H](NC(=O)[C@H](CC(=O)O)NC(=O)[C@H](CO)NC(=O)[C@@H](NC(=O)[C@H](Cc1ccccc1)NC(=O)[C@@H](NC(=O)CNC(=O)[C@H](CCC(N)=O)NC(=O)C(C)(C)NC(=O)[C@@H](N)Cc1c[nH]cn1)[C@@H](C)O)[C@@H](C)O)C(C)C)[C@@H](C)O)C(C)C)C(=O)N[C@@H](CC(C)C)C(=O)NC(C)(C)C(=O)N[C@H](C(=O)N[C@@H](CCC(=O)O)C(=O)O)[C@@H](C)O
# B3: Peptide 492 (peptide)
# peptide: H[Aib]QGTFTSDVSK[αMeF]LDTK([AEEA-AEEA-γGlu-C20 diacid])RARDFVRWLL[Aib]TE-OH
# modifications: N-terminus assumed
# SMILES: CC(C)C[C@H](NC(=O)[C@H](Cc1c[nH]c2ccccc12)NC(=O)[C@H](CCCNC(=N)N)NC(=O)[C@@H](NC(=O)[C@H](Cc1ccccc1)NC(=O)[C@H](CC(=O)O)NC(=O)[C@H](CCCNC(=N)N)NC(=O)[C@H](C)NC(=O)[C@H](CCCNC(=N)N)NC(=O)[C@H](CCCCNC(=O)COCCOCCNC(=O)COCCOCCNC(=O)CC[C@H](NC(=O)CCCCCCCCCCCCCCCCCCC(=O)O)C(=O)O)NC(=O)[C@@H](NC(=O)[C@H](CC(=O)O)NC(=O)[C@H](CC(C)C)NC(=O)[C@](C)(Cc1ccccc1)NC(=O)[C@H](CCCCN)NC(=O)[C@H](CO)NC(=O)[C@@H](NC(=O)[C@H](CC(=O)O)NC(=O)[C@H](CO)NC(=O)[C@@H](NC(=O)[C@H](Cc1ccccc1)NC(=O)[C@@H](NC(=O)CNC(=O)[C@H](CCC(N)=O)NC(=O)C(C)(C)NC(=O)[C@@H](N)Cc1c[nH]cn1)[C@@H](C)O)[C@@H](C)O)C(C)C)[C@@H](C)O)C(C)C)C(=O)N[C@@H](CC(C)C)C(=O)NC(C)(C)C(=O)N[C@H](C(=O)N[C@@H](CCC(=O)O)C(=O)O)[C@@H](C)O
# B4: Peptide 495 (peptide)
# peptide: H[Aib]QGTFTSDVSK[αMeF]LDTK([AEEA-AEEA-γGlu-C18 diacid])RAQDFVRWLLR[Aib]K-NH2
# modifications: N-terminus assumed
# SMILES: CC(C)C[C@H](NC(=O)[C@H](Cc1c[nH]c2ccccc12)NC(=O)[C@H](CCCNC(=N)N)NC(=O)[C@@H](NC(=O)[C@H](Cc1ccccc1)NC(=O)[C@H](CC(=O)O)NC(=O)[C@H](CCC(N)=O)NC(=O)[C@H](C)NC(=O)[C@H](CCCNC(=N)N)NC(=O)[C@H](CCCCNC(=O)COCCOCCNC(=O)COCCOCCNC(=O)CC[C@H](NC(=O)CCCCCCCCCCCCCCCCC(=O)O)C(=O)O)NC(=O)[C@@H](NC(=O)[C@H](CC(=O)O)NC(=O)[C@H](CC(C)C)NC(=O)[C@](C)(Cc1ccccc1)NC(=O)[C@H](CCCCN)NC(=O)[C@H](CO)NC(=O)[C@@H](NC(=O)[C@H](CC(=O)O)NC(=O)[C@H](CO)NC(=O)[C@@H](NC(=O)[C@H](Cc1ccccc1)NC(=O)[C@@H](NC(=O)CNC(=O)[C@H](CCC(N)=O)NC(=O)C(C)(C)NC(=O)[C@@H](N)Cc1c[nH]cn1)[C@@H](C)O)[C@@H](C)O)C(C)C)[C@@H](C)O)C(C)C)C(=O)N[C@@H](CC(C)C)C(=O)N[C@@H](CCCNC(=N)N)C(=O)NC(C)(C)C(=O)N[C@@H](CCCCN)C(N)=O
# B5: Peptide 493 (peptide)
# peptide: H[Aib]QGTFTSDVSK[αMeF]LDTK([AEEA-AEEA-γGlu-C18 diacid])RAQDFVRWLLR[Aib]K-OH
# modifications: N-terminus assumed
# SMILES: CC(C)C[C@H](NC(=O)[C@H](Cc1c[nH]c2ccccc12)NC(=O)[C@H](CCCNC(=N)N)NC(=O)[C@@H](NC(=O)[C@H](Cc1ccccc1)NC(=O)[C@H](CC(=O)O)NC(=O)[C@H](CCC(N)=O)NC(=O)[C@H](C)NC(=O)[C@H](CCCNC(=N)N)NC(=O)[C@H](CCCCNC(=O)COCCOCCNC(=O)COCCOCCNC(=O)CC[C@H](NC(=O)CCCCCCCCCCCCCCCCC(=O)O)C(=O)O)NC(=O)[C@@H](NC(=O)[C@H](CC(=O)O)NC(=O)[C@H](CC(C)C)NC(=O)[C@](C)(Cc1ccccc1)NC(=O)[C@H](CCCCN)NC(=O)[C@H](CO)NC(=O)[C@@H](NC(=O)[C@H](CC(=O)O)NC(=O)[C@H](CO)NC(=O)[C@@H](NC(=O)[C@H](Cc1ccccc1)NC(=O)[C@@H](NC(=O)CNC(=O)[C@H](CCC(N)=O)NC(=O)C(C)(C)NC(=O)[C@@H](N)Cc1c[nH]cn1)[C@@H](C)O)[C@@H](C)O)C(C)C)[C@@H](C)O)C(C)C)C(=O)N[C@@H](CC(C)C)C(=O)N[C@@H](CCCNC(=N)N)C(=O)NC(C)(C)C(=O)N[C@@H](CCCCN)C(=O)O
# Columns and labels:
# [1] = molecular target: human GLP-1 receptor (hGLP-1R) (human, UniProt P43220 24-463); test: cell-based or functional assay
# [2] = molecular target: human glucagon receptor (hGCGR) (human, UniProt P47871 26-477); test: cell-based or functional assay
# Sequence of human glucagon receptor (hGCGR) (P47871 26-477): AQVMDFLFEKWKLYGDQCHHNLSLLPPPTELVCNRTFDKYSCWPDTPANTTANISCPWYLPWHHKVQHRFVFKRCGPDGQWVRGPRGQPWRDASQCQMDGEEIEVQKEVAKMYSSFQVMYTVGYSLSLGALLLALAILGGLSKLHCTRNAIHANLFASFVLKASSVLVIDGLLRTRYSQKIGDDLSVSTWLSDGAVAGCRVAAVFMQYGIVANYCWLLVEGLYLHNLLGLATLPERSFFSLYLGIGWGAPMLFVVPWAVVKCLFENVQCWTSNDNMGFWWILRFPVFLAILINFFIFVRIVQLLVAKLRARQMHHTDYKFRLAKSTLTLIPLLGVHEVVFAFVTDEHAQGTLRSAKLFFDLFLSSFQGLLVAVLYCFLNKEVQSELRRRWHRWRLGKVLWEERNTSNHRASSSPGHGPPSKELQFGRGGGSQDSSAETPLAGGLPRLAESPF
Binder,hGLP-1R EC50 (pM) [1] [pM],hGluc-R EC50 (pM) [2] [pM]
B1,69,396
B2,73.6,232
B3,212,374
H[Aib]QGTFTSDVSK[αMeF]LDTK([AEEA-AEEA-γGlu-C20 diacid])RAQDFVRWLLR[Aib]K-OH [Peptide 494],98.7,212
B4,23.2,380
B5,23.4,166
